From IntAct's records for PubMed 29611543

B1: Triggering receptor expressed on myeloid cells 2 (Homo sapiens), Q9NZC2 (parent)
chain: MEPLRLLILLFVTELSGAHNTTVFQGVAGQSLQVSCPYDSMKHWGRRKAWCRQLGEKGPCQRVVSTHNLWLLSFLRRWNGSTAITDDTLGGTLTITLRNLQPHDAGLYQCQSLHGSEADTLRKVLVEVLADPLDHRDAGDLWFPGESESFEDAHVEHSISRSLLEGEIPFPPTSILLLLACIFLIKILAASALWAAAWHGQKPGTHPPSELDCGHDPGYQLQTLPGLRDT

Variants of: B1
Details: with psn1_human PSEN1, P49768

| effect of a mutation on the interaction | Variant |
| --- | --- |
| with no effect | MEPLRLLILLFVTELSGAHNTTVFQGVAGQSLQVSCPYDSMKHWGRRKAWCRQLGEKGPCQRVVSMHNLWLLSFLRRWNGSTAITDDTLGGTLTITLRNLQPHDAGLYQCQSLHGSEADTLRKVLVEVLADPLDHRDAGDLWFPGESESFEDAHVEHSISRSLLEGEIPFPPTSILLLLACIFLIKILAASALWAAAWHGQKPGTHPPSELDCGHDPGYQLQTLPGLRDT [T66M] |
| with no effect | MEPLRLLILLFVTELSGAHNTTVFQGVAGQSLQVSCPYDSMKHWGRHKAWCRQLGEKGPCQRVVSTHNLWLLSFLRRWNGSTAITDDTLGGTLTITLRNLQPHDAGLYQCQSLHGSEADTLRKVLVEVLADPLDHRDAGDLWFPGESESFEDAHVEHSISRSLLEGEIPFPPTSILLLLACIFLIKILAASALWAAAWHGQKPGTHPPSELDCGHDPGYQLQTLPGLRDT [R47H] |
| with no effect | MEPLRLLILLFVTELSGAHNTTVFQGVAGQSLQVSCPYDSMKHWGRRKAWCRQLGEKGPCQRVVSTHNLWLLSFLRRWNGSTAITDDTLGGTLTIKLRNLQPHDAGLYQCQSLHGSEADTLRKVLVEVLADPLDHRDAGDLWFPGESESFEDAHVEHSISRSLLEGEIPFPPTSILLLLACIFLIKILAASALWAAAWHGQKPGTHPPSELDCGHDPGYQLQTLPGLRDT [T96K] |
